{"source": "patent US12234269B2", "about": "“Osteogenic biomaterial” (Northeast Ohio Medical University, priority 2014, dated 2025)", "key": {"[1]": {"experiment": "Osteogenic activity of the peptide fragment", "source_text": "A preferred osteoactivin active peptide fragment for use in the present invention is the amino acid sequence LAPFSRGDREKDPLLQDK (SEQ ID NO: 1). […] Accordingly, in some embodiments, shorter sections of SEQ ID NO: 1 consisting of 6 or 12 amino acids can be used."}, "[2]": {"experiment": "CBC, CMP, urinalysis and histological sampling of OA-treated sheep", "format": "in vivo, sheep (Ovis aries)", "source_text": "Approval of the Northeast Ohio Medical University Institutional Animal Care and Use Committee (IACUC) was obtained prior to the start of this study. Six (6) male sheep (Ovis aries) between ages 2-3 years old were used, each with a critical size defect (25 mm in depth×11 mm in diameter) drilled into bilateral hind limb distal femurs. The surgical protocol utilized was based on previous work done to develop a model for cancellous bone healing (Malhotra et al, Front Surg. 2014 Sep. 8; 1:37). This method allowed for high quality standardization and sterility processes across each sheep. […] Martini et al., Comp Med. 2001 August; 51(4):292-9; Pearce et al., Eur Cell Mater. 2007 Mar. 2; 13:1-10. The procedures were performed by an orthopedic surgeon. Once under appropriate anesthesia, one femur defect (left hindlimb) was drilled with a cannulated acorn drill (Stryker) and packed with an PBS absorbable collagen sponge (Medline Industries) without OA protein and thus functioned as a control, while the other defect (right hindlimb) was filled with either a low dose (10 μg), or high dose (50 μg) recombinant OA-soaked collagen sponge (R&D Systems). Three sheep received the high dose OA while two received the low dose OA, and one was left as a control. The animals were allowed to recover and then terminated after a period of 10 weeks. […]"}, "bone segmental defect": {"test_system": "bone segmental defect", "experiment": "Local delivery in a model of bone segmental defect", "format": "in vivo", "source_text": "It is synthesized and secreted by osteoblasts where it acts as signaling molecule to promote osteoblast differentiation and function. […] Research has also shown that OA is involved in mouse and human stem cells differentiation to bone cells, and that OA is responsible to transdifferentiate muscle cells to bone forming osteoblasts. The receptor for OA in bone and mesenchymal stem cells is CD44. OA induces differentiation of mesenchymal stem cells to bone cells through CD44."}, "[3]": {"test_system": "critical size defects in bilateral distal femurs", "experiment": "Sheep model for cancellous bone healing (critical size defect in distal femur, OA-soaked collagen sponge)", "format": "in vivo, sheep (Ovis aries)", "conditions": "for radiographic analysis: regeneration of bone at the defect site: vs control femurs", "source_text": "Thus, the sheep model provides a way to study the effect of OA on osteogenesis by inducing critical size defects into the long bones of the animals. […] Approval of the Northeast Ohio Medical University Institutional Animal Care and Use Committee (IACUC) was obtained prior to the start of this study. Six (6) male sheep (Ovis aries) between ages 2-3 years old were used, each with a critical size defect (25 mm in depth×11 mm in diameter) drilled into bilateral hind limb distal femurs. The surgical protocol utilized was based on previous work done to develop a model for cancellous bone healing (Malhotra et al, Front Surg. 2014 Sep. 8; 1:37). This method allowed for high quality standardization and sterility processes across each sheep. […] Martini et al., Comp Med. 2001 August; 51(4):292-9; Pearce et al., Eur Cell Mater. 2007 Mar. 2; 13:1-10. The procedures were performed by an orthopedic surgeon. Once under appropriate anesthesia, one femur defect (left hindlimb) was drilled with a cannulated acorn drill (Stryker) and packed with an PBS absorbable collagen sponge (Medline Industries) without OA protein and thus functioned as a control, while the other defect (right hindlimb) was filled with either a low dose (10 μg), or high dose (50 μg) recombinant OA-soaked collagen sponge (R&D Systems). Three sheep received the high dose OA while two received the low dose OA, and one was left as a control. The animals were allowed to recover and then terminated after a period of 10 weeks. The femurs were harvested for x-ray (General Electric) and μCT (Scanco) imaging. Blood and urine samples were collected for CBC, CMP and urinalysis (ANTECH Diagnostics). Tissue biopsies were taken from heart, lung, liver, spleen, kidney, thyroid gland, adrenal gland, and skeletal muscle for RNA and histological analyses during post-mortem dissection."}, "CD44": {"target": "T1, CD44 (Mus musculus, UniProt P15379)", "T1 construct": "biotinylated rOA added onto MC3T3-E1 cells; endogenous in cells; host or cells: MC3T3-E1", "T1 sequence (P15379 23-778)": "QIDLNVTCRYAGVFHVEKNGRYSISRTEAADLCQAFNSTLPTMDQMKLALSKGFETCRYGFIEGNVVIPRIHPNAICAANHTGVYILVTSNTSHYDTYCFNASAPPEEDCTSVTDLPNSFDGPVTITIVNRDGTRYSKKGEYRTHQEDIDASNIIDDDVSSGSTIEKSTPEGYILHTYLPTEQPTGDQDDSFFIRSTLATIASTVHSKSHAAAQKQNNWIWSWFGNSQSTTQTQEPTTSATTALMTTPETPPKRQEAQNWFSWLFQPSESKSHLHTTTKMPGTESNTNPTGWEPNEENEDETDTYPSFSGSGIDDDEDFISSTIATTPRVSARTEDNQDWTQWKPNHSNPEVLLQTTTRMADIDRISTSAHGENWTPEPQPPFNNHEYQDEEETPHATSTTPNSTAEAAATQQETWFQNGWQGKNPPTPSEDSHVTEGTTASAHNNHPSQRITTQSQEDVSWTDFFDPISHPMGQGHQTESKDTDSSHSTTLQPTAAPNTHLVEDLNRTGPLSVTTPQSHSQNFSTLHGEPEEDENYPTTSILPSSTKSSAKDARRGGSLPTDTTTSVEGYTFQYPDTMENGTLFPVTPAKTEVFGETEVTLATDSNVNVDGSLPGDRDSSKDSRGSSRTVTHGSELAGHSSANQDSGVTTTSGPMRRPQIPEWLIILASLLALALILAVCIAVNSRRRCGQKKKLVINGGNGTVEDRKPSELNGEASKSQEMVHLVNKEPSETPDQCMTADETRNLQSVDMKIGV", "experiment": "Binding of biotinylated rOA on MC3T3-E1 cells (immunofluorescence, immunoprecipitation, blot for CD44)", "source_text": "FIG. 3(A-C) provides images showing osteoactivin binds to CD44 in bone cells. (A) Silver staining and mass spectroscopy analysis of biotinylated rOA added onto MC3T3-E1 cells."}, "bone defect": {"test_system": "bone defect", "conditions": "at 4 weeks; none of the control animals showed complete bone fill; cited from earlier work"}}}
{"molecule": "LAPFSRGDREKDPLLQDK (listed as Homo sapiens) [SEQ ID NO: 1]", "values": [{"measurement": "osteogenic activity", "setting": "[1]", "result": "demonstrated the osteogenic activity"}]}
{"molecule": "OA: 572 amino acid transmembrane glycoprotein encoded by the GPNMB gene; recombinant protein (R&D Systems) soaked into collagen sponge (protein, UniProt Q14956 23-572, looked up) Transmembrane glycoprotein NMB: KRFHDVLGNERPSAYMREHNQLNGWSSDENDWNEKLYPVWKRGDMRWKNSWKGGRVQAVLTSDSPALVGSNITFAVNLIFPRCQKEDANGNIVYEKNCRNEAGLSADPYVYNWTAWSEDSDGENGTGQSHHNVFPDGKPFPHHPGWRRWNFIYVFHTLGQYFQKLGRCSVRVSVNTANVTLGPQLMEVTVYRRHGRAYVPIAQVKDVYVVTDQIPVFVTMFQKNDRNSSDETFLKDLPIMFDVLIHDPSHFLNYSTINYKWSFGDNTGLFVSTNHTVNHTYVLNGTFSLNLTVKAAAPGPCPPPPPPPRPSKPTPSLATTLKSYDSNTPGPAGDNPLELSRIPDENCQINRYGHFQATITIVEGILEVNIIQMTDVLMPVPWPESSLIDFVVTCQGSIPTEVCTIISDPTCEITQNTVCSPVDVDEMCLLTVRRTFNGSGTYCVNLTLGDDTSLALTSTLISVPDRDPASPLRMANSALISVGCLAIFVTVISLLVYKKHKEYNPIENSPGNVVRSKGLSVFLNRAKAVFFPGNQEKDPLLKNQEFKGVS", "values": [{"measurement": "adverse systemic effects per laboratory studies or histological sampling", "setting": "[2]; administered locally, sheep", "result": "no apparent adverse systemic effects"}, {"measurement": "CBC, CMP and urinalysis", "setting": "[2]; control vs OA-treated sheep", "result": "no apparent abnormalities"}, {"measurement": "bone regeneration", "setting": "bone segmental defect", "result": "stimulates bone regeneration"}, {"measurement": "radiographs and μCT of the femur defect site", "setting": "[3]; 50 μg OA, after 10 weeks, compared to control (FIG. 2)", "result": "regenerated bone"}, {"measurement": "bone healing and regeneration (radiographic, μCT imaging and histological analysis)", "setting": "[3]; OA-soaked absorbable collagen sponge vs defect only or collagen sponge alone, n=6", "result": "significantly accelerated bone healing and regeneration"}, {"measurement": "Micro-CT bone volume and density of the regenerated area", "setting": "[3]; OA-treated defect sites vs control, 10 weeks", "result": "significant increase"}, {"measurement": "radiographic analysis: regeneration of bone at the defect site", "setting": "[3]; high dose (50 μg) recombinant OA-soaked collagen sponge, 10 weeks", "result": "complete regeneration of bone at the defect site"}, {"measurement": "radiographic analysis: regeneration of bone at the defect site", "setting": "[3]; low dose (10 μg) recombinant OA-soaked collagen sponge, 10 weeks", "result": "complete regeneration of bone at the defect site"}, {"measurement": "Immunoprecipitation of biotinylated rOA pulled out with streptavidin beads and blotted for CD44", "setting": "CD44; MC3T3-E1 cells", "result": "OA-CD44 interaction"}, {"measurement": "Immunofluorescence of CD44 and OA", "setting": "CD44; bone cells", "result": "colocalization along the cell membrane"}, {"measurement": "animals showing complete bone fill", "setting": "bone defect", "result": 70, "unit": "%"}]}
